The values below come from PMC10397247.

The target in one test is T1, 4H3120-AA.
T1 chain: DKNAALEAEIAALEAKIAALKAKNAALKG
The test is described as follows: two-hybrid library CCmax.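 Note: natural log of median RNA to DNA barcode read ratio; higher means stronger binding.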 Particulars: mean of both orientations.

A further test deals with T2, 4H458-AA.
T2 chain: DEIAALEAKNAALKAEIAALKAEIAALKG
The test is described as follows: two-hybrid library CCmax.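 Note: natural log of median RNA to DNA barcode read ratio; higher means stronger binding.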 The settings on record: mean of both orientations.

The target of another test is T3, 4H3590-AA.
T3 chain: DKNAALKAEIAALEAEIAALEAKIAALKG
Nature of the test: two-hybrid library CCmax.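 Note: natural log of median RNA to DNA barcode read ratio; higher means stronger binding.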 Particulars: mean of both orientations.

For a further test, the target named is T4, 4H2473-AA.
T4 chain: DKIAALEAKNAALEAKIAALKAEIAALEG
Nature of the test: two-hybrid library CCmax.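 Note: natural log of median RNA to DNA barcode read ratio; higher means stronger binding.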 Particulars: mean of both orientations.

Another test addresses T5, 4H891-AA.
T5 chain: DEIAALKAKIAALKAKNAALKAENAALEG
Nature of the test: two-hybrid library CCmax.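 Note: natural log of median RNA to DNA barcode read ratio; higher means stronger binding.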 Particulars: mean of both orientations.

A further test concerns the target T6, 4H2725-AA.
T6 chain: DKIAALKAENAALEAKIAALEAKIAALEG
The test is described as follows: two-hybrid library CCmax.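 Note: natural log of median RNA to DNA barcode read ratio; higher means stronger binding.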 Particulars: mean of both orientations.

A further test has as its target T7, 4H2438-AA.
T7 chain: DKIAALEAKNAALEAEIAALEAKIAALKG
Nature of the test: two-hybrid library CCmax.

For a further test, the target named is T8, 4H485-AA.
T8 chain: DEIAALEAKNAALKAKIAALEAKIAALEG
The test is described as follows: two-hybrid library CCmax. The settings on record: mean of both orientations.

The next test addresses T9, 4H909-AA.
T9 chain: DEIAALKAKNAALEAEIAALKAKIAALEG
Nature of the test: two-hybrid library CCmax. Particulars: mean of both orientations.

The next test addresses T10, 4H745-AA.
T10 chain: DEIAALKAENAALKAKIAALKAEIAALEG
Nature of the test: two-hybrid library CCmax. The settings on record: mean of both orientations.

For the next test, the target named is T11, 4H710-AA.
T11 chain: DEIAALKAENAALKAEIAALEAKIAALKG
The test is described as follows: two-hybrid library CCmax.

The next test addresses T12, 4H629-AA.
T12 chain: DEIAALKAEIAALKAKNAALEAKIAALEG
Nature of the test: two-hybrid library CCmax. The settings on record: mean of both orientations.

For another test, the target named is T13, 4H3009-AA.
T13 chain: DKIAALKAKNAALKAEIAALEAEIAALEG
Nature of the test: two-hybrid library CCmax. Particulars: mean of both orientations.

A further test has as its target T14, 4H3130-AA.
T14 chain: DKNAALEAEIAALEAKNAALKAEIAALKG
The test is described as follows: two-hybrid library CCmax. The settings on record: mean of both orientations.

Another test addresses T15, 4H3865-AA.
T15 chain: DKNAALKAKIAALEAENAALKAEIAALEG
The test is described as follows: two-hybrid library CCmax. Particulars: mean of both orientations.

The target of a further test is T16, 4H3016-AA.
T16 chain: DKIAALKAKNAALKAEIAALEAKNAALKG
The test is described as follows: two-hybrid library CCmax. Particulars: mean of both orientations.

The next test deals with T17, 4H2698-AA.
T17 chain: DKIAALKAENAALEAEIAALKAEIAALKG
The test is described as follows: two-hybrid library CCmax. Particulars: mean of both orientations.

The next test addresses T18, 4H570-AA.
T18 chain: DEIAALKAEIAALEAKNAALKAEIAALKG
The test is described as follows: two-hybrid library CCmax. The settings on record: mean of both orientations.

The target in the next test is T19, 4H3697-AA.
T19 chain: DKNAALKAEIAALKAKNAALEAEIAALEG
The test is described as follows: two-hybrid library CCmax. Particulars: mean of both orientations.

Another test concerns the target T20, 4H2649-AA.
T20 chain: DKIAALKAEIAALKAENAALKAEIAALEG
The test is described as follows: two-hybrid library CCmax. The settings on record: mean of both orientations.

A further test concerns the target T21, 4H3753-AA.
T21 chain: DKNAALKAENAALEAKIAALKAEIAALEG
Nature of the test: two-hybrid library CCmax. Particulars: mean of both orientations.

Another test deals with T22, 4H94-AA.
T22 chain: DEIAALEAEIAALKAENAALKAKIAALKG
Nature of the test: two-hybrid library CCmax. The settings on record: mean of both orientations.

Another test concerns the target T23, 4H3410-AA.
T23 chain: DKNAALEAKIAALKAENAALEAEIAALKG
Nature of the test: two-hybrid library CCmax. The settings on record: mean of both orientations.

In the next test the target is T24, 4H3165-AA.
T24 chain: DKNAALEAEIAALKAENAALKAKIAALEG
The test is described as follows: two-hybrid library CCmax. Particulars: mean of both orientations.

Another test concerns the target T25, 4H3395-AA.
T25 chain: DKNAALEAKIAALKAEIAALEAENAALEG
The test is described as follows: two-hybrid library CCmax. Particulars: mean of both orientations.

A further test concerns the target T26, 4H797-AA.
T26 chain: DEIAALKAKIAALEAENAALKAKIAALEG
Nature of the test: two-hybrid library CCmax. The settings on record: mean of both orientations.

The next test deals with T27, 4H2865-AA.
T27 chain: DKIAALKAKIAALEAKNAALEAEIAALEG
The test is described as follows: two-hybrid library CCmax. Particulars: mean of both orientations.

Another test addresses T28, 4H536-AA.
T28 chain: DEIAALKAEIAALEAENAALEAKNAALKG
Nature of the test: two-hybrid library CCmax. Particulars: mean of both orientations.

The target of another test is T29, 4H930-AA.
T29 chain: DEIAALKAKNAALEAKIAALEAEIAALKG
Nature of the test: two-hybrid library CCmax. The settings on record: mean of both orientations.

In a further test the target is T30, 4H3381-AA.
T30 chain: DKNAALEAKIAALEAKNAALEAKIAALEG
The test is described as follows: two-hybrid library CCmax. Particulars: mean of both orientations.

Another test addresses T31, 4H850-AA.
T31 chain: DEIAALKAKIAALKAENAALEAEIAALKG
The test is described as follows: two-hybrid library CCmax. The settings on record: mean of both orientations.

For another test, the target named is T32, 4H310-AA.
T32 chain: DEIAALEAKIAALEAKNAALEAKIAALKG
Nature of the test: two-hybrid library CCmax. Particulars: mean of both orientations.

In a further test the target is T33, P9.
T33 chain: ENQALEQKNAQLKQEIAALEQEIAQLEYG
The test is described as follows: two-hybrid library CC1. Particulars: mean of both orientations.

Another test concerns the target T34, P8mS.
T34 chain: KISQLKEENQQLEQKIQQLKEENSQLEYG
The test is described as follows: two-hybrid library CC1.

B1: 4H2438-AA (peptide)
chain: DKIAALEAKNAALEAEIAALEAKIAALKG
For the molecule B1, the interaction score was -0.892 with 4H3120-AA; 2.03 in the test with 4H458-AA; -0.136 in the test with 4H3590-AA; 1.99 in the test with 4H2473-AA; -1.67 in the test with 4H891-AA; 1.32 with 4H2725-AA. Further, the interaction score in the test with 4H2438-AA was 1.62; with 4H485-AA, 2.05; with 4H909-AA it was 0.42; in the test with 4H745-AA, 1.6; with 4H710-AA, -0.823; with 4H629-AA, -1.42. The interaction score was 1.88 with 4H3009-AA; -0.561 with 4H3130-AA; -1.16 in the test with 4H3865-AA; -0.613 with 4H3016-AA; 1.25 with 4H2698-AA; 0.233 with 4H570-AA. Further, the interaction score with 4H3697-AA was -1.23; with 4H2649-AA, -0.664; in the test with 4H3753-AA it was 1.89; in the test with 4H94-AA, 1.28; in the test with 4H3410-AA, 0.0321; in the test with 4H3165-AA it was -1.17. In addition, the interaction score with 4H3395-AA is 0.314; with 4H797-AA, -1.67; with 4H2865-AA it was -0.236; with 4H536-AA, -1.47; in the test with 4H930-AA, 0.452; with 4H3381-AA it was -1.06. Also, the interaction score was 0.962 in the test with 4H850-AA and -0.376 with 4H310-AA.

B2: P8mS (peptide)
chain: KISQLKEENQQLEQKIQQLKEENSQLEYG
B2: the values for the interaction score in the test with P9 and with P8mS were -2.35 and -3.02, respectively.
